Measured values from patent publication US20140235820A1, “METHODS AND COMPOSITIONS FOR MODULATING THE Wnt PATHWAY” (Genentech, Inc., priority 2010, published 2014).

T1: LRP6 E1E2 (Homo sapiens, UniProt O75581)
T1 construct: construct E1E2-amino acids A20-E631 of LPR6; made in house; host or cells: Tni insect cells (baculovirus, secreted)
T1 sequence (O75581 20-631): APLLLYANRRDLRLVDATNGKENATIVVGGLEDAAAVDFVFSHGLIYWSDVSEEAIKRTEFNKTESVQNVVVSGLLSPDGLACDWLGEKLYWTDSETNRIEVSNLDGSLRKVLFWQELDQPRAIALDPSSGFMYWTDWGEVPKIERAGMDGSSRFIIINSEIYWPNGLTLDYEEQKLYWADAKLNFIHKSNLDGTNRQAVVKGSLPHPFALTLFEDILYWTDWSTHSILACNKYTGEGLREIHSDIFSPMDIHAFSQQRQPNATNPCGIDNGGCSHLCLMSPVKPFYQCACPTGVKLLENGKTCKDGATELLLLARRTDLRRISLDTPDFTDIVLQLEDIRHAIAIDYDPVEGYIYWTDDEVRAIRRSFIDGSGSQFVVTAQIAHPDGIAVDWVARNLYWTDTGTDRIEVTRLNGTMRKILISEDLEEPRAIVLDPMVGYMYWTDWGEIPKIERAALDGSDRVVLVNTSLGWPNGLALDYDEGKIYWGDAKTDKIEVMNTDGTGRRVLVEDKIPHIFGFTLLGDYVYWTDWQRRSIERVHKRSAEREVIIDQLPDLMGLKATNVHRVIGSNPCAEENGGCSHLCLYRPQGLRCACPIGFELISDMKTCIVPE

T2: LRP6 E1E2 Asn185Ser (human, UniProt O75581 20-631)
T2 construct: range 20-631; also called LRP6 E1E2 N185S (analogue of LRP5 BMD mutation Asn198Ser)
T2 sequence (looked up): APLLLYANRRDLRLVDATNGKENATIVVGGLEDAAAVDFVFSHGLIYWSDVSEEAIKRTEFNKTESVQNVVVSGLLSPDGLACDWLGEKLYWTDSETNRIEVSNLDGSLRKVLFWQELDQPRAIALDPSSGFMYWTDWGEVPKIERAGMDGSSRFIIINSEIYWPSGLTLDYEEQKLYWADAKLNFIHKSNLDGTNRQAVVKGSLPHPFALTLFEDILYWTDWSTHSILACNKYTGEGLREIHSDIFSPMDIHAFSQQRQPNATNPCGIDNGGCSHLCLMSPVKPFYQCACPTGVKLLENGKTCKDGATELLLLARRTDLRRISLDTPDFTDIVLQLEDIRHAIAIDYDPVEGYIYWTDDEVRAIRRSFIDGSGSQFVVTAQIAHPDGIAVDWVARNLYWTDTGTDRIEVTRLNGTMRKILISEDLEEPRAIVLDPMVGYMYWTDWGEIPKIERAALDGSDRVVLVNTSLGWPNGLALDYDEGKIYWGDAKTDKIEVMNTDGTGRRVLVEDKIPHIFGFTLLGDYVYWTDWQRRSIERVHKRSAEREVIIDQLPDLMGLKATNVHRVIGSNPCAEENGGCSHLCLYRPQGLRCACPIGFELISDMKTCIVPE

T3: LRP6 E1E2 Arg141Met (human, UniProt O75581 20-631)
T3 construct: range 20-631; also called LRP6 E1E2 R141M
T3 sequence (looked up): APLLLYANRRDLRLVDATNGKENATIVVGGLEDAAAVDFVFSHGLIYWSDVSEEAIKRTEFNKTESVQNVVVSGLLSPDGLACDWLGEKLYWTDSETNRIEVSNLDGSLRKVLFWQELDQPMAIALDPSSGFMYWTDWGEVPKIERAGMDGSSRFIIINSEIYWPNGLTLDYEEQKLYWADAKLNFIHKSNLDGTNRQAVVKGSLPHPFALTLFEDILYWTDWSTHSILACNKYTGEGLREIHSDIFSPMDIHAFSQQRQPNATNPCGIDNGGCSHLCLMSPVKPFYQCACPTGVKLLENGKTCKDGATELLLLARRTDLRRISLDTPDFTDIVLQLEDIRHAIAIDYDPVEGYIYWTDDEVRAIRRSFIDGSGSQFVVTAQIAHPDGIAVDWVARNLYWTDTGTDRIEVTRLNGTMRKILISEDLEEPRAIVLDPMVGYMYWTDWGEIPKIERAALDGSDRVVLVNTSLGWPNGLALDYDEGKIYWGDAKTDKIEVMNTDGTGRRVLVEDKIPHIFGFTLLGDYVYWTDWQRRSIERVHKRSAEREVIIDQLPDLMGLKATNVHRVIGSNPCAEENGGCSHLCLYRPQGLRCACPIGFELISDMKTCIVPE

T4: human LRP6 construct E3E4 (amino acids E631-Q1253) (human, UniProt O75581 631-1253, biotinylated for biolayer interferometry)
T4 construct: range 631-1253; also called LRP6 E3E4
T4 sequence (looked up): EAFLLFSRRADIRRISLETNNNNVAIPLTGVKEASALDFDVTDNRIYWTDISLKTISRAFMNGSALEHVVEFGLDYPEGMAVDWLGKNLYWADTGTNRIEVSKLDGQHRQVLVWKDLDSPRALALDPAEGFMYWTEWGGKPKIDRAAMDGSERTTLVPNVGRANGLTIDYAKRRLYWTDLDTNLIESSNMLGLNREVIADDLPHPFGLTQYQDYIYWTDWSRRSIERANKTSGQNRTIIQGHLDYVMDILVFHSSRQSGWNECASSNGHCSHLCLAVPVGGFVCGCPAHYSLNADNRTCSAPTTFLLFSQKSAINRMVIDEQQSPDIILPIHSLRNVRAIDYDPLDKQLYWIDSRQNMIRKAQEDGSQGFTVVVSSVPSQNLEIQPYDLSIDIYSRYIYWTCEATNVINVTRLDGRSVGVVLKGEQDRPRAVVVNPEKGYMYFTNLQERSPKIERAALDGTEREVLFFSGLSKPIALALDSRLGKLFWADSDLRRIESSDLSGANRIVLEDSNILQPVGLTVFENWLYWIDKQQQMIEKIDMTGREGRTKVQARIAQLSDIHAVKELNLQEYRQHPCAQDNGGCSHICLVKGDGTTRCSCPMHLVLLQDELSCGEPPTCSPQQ

T5: human LRP6 construct E4 (T933-Q1253) (human, UniProt O75581 933-1253, biotinylated for biolayer interferometry)
T5 construct: range 933-1253; also called LRP6 E4
T5 sequence (looked up): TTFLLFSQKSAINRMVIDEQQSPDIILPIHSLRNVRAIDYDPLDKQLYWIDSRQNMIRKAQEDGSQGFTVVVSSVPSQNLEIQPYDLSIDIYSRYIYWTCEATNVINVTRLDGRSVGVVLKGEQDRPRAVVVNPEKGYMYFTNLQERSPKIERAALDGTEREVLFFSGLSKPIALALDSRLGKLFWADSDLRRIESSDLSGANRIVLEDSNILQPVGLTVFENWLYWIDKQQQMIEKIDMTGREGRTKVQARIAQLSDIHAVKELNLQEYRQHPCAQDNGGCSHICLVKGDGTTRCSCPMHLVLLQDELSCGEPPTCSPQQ


Tests used:
LRP6 E1E2 = target: T1, LRP6 E1E2; experiment: Competition phage ELISA, peptide affinity for LRP6 E1E2; type: binding; conditions: relative to Dkk1 peptide
Procedure: Peptide affinities were also determined by competition with phage displaying a binding peptide (competition phage ELISA). Serial dilutions of test peptide were mixed with an appropriate (non-saturating) concentration of phage before exposing the mixture to target and allowing it to reach equilibrium. After washing to remove unbound material, bound phage were detected by incubation with anti-M13 antibody-horseradish peroxidase (HRP) conjugate and exposure to a suitable colorometric HRP substrate.
Seven-residue peptides from Dkk1 and Sost were synthesized by standard Fmoc procedures. FIG. 7B. These peptides include the “NXI” motif described above. Affinities of the peptides for LRP6 E1E2 were determined by competition phage ELISA (41). […] To understand the detailed interactions of the peptides with LRP6, we determined high-resolution co-crystal structures of the peptides bound to the LRP6 E1 β-propeller. Structures were determined by molecular replacement and refined to 1.9 and 1.5 Å resolution for Dkk1 and Sost peptides, respectively (FIG. 8). Remarkably, the peptides show very similar bound-state conformations compared to the antibody loop, in each case placing the key asparagine side chain in position for the “handshake” interaction described above. Peptide isoleucine residues occupy the hydrophobic pocket where the valine side chain of the antibody loop interacts. […]

LRP6 E1E2 Asn185Ser = target: T2, LRP6 E1E2 Asn185Ser; experiment: BLI steady-state affinity
Procedure: (§1) Binding kinetics were measured by biolayer interferometry using an Octet Red instrument (ForteBio) as previously described (11). Streptavidin (SA) biosensors were loaded with biotinylated hLRP6 in 50 mMTris, pH 8, 300 mM NaCl, 5% (v/v) glycerol, and 0.05% (w/v) Triton X-100. The loaded biosensors were washed in the same buffer before carrying out association and dissociation measurements for the indicated times. The Kd of each interaction was determined using steady state-analysis through the Octet Red software v6.3. Each reported value represents an average of three or more experiments at different concentrations, with a fitted experimental curve for which the square of the correlation coefficient (R²) is above 0.96.

LRP6 E1E2 Arg141Met = target: T3, LRP6 E1E2 Arg141Met; experiment: BLI steady-state affinity
Procedure: as §1

[1] = target: T4, human LRP6 construct E3E4 (amino acids …); experiment: BLI, biotinylated LRP6 on streptavidin tips
Procedure: as §1
(§2) Purified receptors contained individual β-propeller-EGF-like units (E1, E2, or E4), two β-propellers (E1E2 or E3E4), or four β-propellers (E1E4))—as follows: […]

[2] = target: T5, human LRP6 construct E4 (T933-Q1253); experiment: BLI, biotinylated LRP6 on streptavidin tips
Procedure: as §1, §2

Row | Molecule | binds more weakly than the Dkk1 peptide (LRP6 E1E2) | fold loss in affinity against wild-type LRP6 E1E2 (LRP6 E1E2 Asn185Ser) [fold] | fold loss in affinity against wild-type LRP6 E1E2 (LRP6 E1E2 Arg141Met) [fold] | binding result [1] | binding result [2]
1 | Ac-LPNAIGR-NH2 (N-terminus and C-terminus assumed) [sclerostin peptide] | about 10 fold | – | – | – | –
2 | Sclerostin (wild type) (ligand, UniProt Q9BQB4 24-213, looked up, also called SOST; Sost) QGWQAFKNDATEIIPELGEYPEPPPELENNKTMNRAENGGRPPHHPFETKDVSEYSCRELHFTRYVTDGPCRSAKPVTELVCSGQCGPARLLPNAIGRGKWWRPSGPDFRCIPDRYRAQRVQLLCPGGEAPRARKVRLVASCKCKRLTRFHNQSELKDFGTEAARPQKGRKPRPRARSAKANQAELENAY | – | 59 | 31 | no binding | no binding
